Experimental data taken from the domain aggregation screens of Martell et al. (2025).

Assay: soluble fraction after stress (log2 fold change); higher = more stays soluble; pooled small domains, quantitative proteomics
Conditions: stress: 50 degC
Summary of the method: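 Pooled custom libraries of small protein domains were each held under stress at 50°C. The read-out, high-throughput quantitative proteomics, tracked how much of each protein stayed soluble. This is reported as a base-two log fold change used to indicate aggregation propensity. Higher values mean more protein remains in solution.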

“HMNLLSPREKQSLTLYASGLTLREVASELKLSPNSVGKFISRGKFKLNKSGAIVNSKTSIYLELKKRNLI” and “HMSNYLKSVEVFDPITNKWSYVSAMKVRRGYVAVVATMDRLYAIGGYDGENYLSTVEMYNPDTN” are within 0.2 log units of each other in “soluble fraction (log2)” value: -0.111 for the first, 0.0631 for the second.

Compared with “HMLYITEIQKKIMDAFLVVANESNSGTRITMNEIANKVRMTPQAIYRKHFKSVIEISDTIRD”, “HMDLLESLSAREREVVHLASRGLVNKLIARELGITERTVKAHLSSAFEKLHIKDRVHLALLVNGI” is lower in “soluble fraction (log2)” value: -0.531 for the first, -1.45 for the second.

Going from “HMSKAYLSVESNISGARVFVDGQKEGTTPLSDVLLSAGEHLILVKKQGYETYQKRVRFQKGRSMSLYVDLS” to “HMDRLTISTLGNGLFRVNGAEAEATVYNLSGNVVKVVPADEVIDLSSLAKGVYIIHVDGEAFKVI”, the “soluble fraction (log2)” value falls from -0.159 to -0.86.

Compared with “HMVFADRLRALRKKSGLTQDEFSKQTGIGRSAVGMYESGKREPNYTTLSKVARFYHVSTDYLLGRTDTP”, “HMVITATYTDFMDALEADEVKQVQFSSTEINYTIEKGGHVQYFKTGVVDNPQLPQILREKGVTYAAEIP” is higher in “soluble fraction (log2)” value: -1.04 for the first, -0.0375 for the second.

Going from “HMQEKQIIDGREFYIHQVERGITLYSIAKQYNVKVADIQAENPFLEAGLQPGQTLKIPLDKVETVQEIK” to “HMVNVLKNSTVIDLVKNNLSDALIISLIRRAKVDFSLMTDDVIELSGKGVSPAVIMEMRQAMIRQASEIQN”, the “soluble fraction (log2)” value falls from 0.125 to -0.145.

Compared with “HMSELSEVIEKTFEELPEELKLIVKLREIDDLSYDEISNKIGIPIGTVRSRLHRAREILINIIKN”, “HMNSIQEQIEKYVYSLAPVTIERYESLKNGDIEDIEFEKLRKSISSKIINEKIDNKKQVAILSHLKKMYSD” is higher in “soluble fraction (log2)” value: -1.55 for the first, 0.0107 for the second.

First: HMGVEVEVPNVKGKLVADAEYELGLAQLTPVRTDSAYNRNLPPGTVLEQLPASGSHVKEGREIYLTINST
Second: HMATAEETTPLWARNRLSHAIFGPGSVTGEDERSFEVAFDNGDTLNFSKKSAHLYFTAMSSR
The “soluble fraction (log2)” value of the first is higher: 0.264 for the first, -0.0942 for the second.

“HMSTISPNAFNFLQQNLNKFSDDAEGKMIKDILSKTTYDEYVKNEKSKTDFNSLLRRQTTTGDDNLNRYIN” and “HMPVSTLLGDNLRRLRTAKGYTQEAVADAARISVAAYRNYETGRAIPKVNTLLAIARALGVSLNDLVTE” are within 0.2 log units of each other in “soluble fraction (log2)” value: 0.0247 for the first, -0.104 for the second.

Compared with “HMHSPTFYVHVVGQVKVPGVYELEVGSRLFDAVIAAGGFKDDADQASVNLARPLSDGEQIVVLKLGDQ”, “HMLPKNITNTIDHWIQKFPQGKQRSAIIAALHAVQHHNKGFLTNDLLNQVADYIDVPKMNVYEVATFYSM” is higher in “soluble fraction (log2)” value: -0.251 for the first, 0.0843 for the second.

First: HMYLEARVKSTTPILSKPNELGKSLGKLYTNDFVALVSLHKNGLDSYYRTANGGYINAADVVIDRDV
Second: HMNEGETLYRLRAGDGRARLDKFLAAALPDISRTRFKGLIESGHVRVGGETITEPAYRVKSEAEVELTVPE
The “soluble fraction (log2)” value of the first is lower: -0.663 for the first, 0.0139 for the second.

First: HMELPVAVPHTELSPEALRGVVESFVLREGTDYGERDVPFEAKVAQVIRQLERGEARIMFDPVTQSVQIVT
Second: HMKSERHALILSLIEKKNVETQEDLAELLKERGVAVTQATVSRDIKELRLIKVLSETGGYKYATVDKAE
The “soluble fraction (log2)” value of the first is higher: 0.102 for the first, -0.103 for the second.

Compared with “HMHVSLSGKIHSELRKLILNGELKAGERLPSEPDLAHELGVSRNSLREAIGLLQREGLLLKKHGIGTFVTD”, “HMQAQQYYMLLMNKATSALKIEALGANSNKAHQSFGTKTAGGSAVYWGILFNSNGKIYKIVG” is lower in “soluble fraction (log2)” value: -0.829 for the first, -2.96 for the second.

“HMDNPPDRAEIEQMLKDAGLTPEADAMAALSDLARTLDPGDFRQTLEKITLYKLGDSTPIGLDDIAAGAP” and “HMDYINALTTAGITDAKVIVTAPFDVSGTAALTGIYKAYEDITGSSLNEIAKAVGVEELITTGNLA” are within 0.2 log units of each other in “soluble fraction (log2)” value: -0.0256 for the first, 0.0392 for the second.

First: HMDDGLTRLTPRENEVLELMAQGRSNTAIAERLVLSYGAVEKNVSSIFTKLDLPLDAGDHRRVLAVLRRLN
Second: HMLANLNKELQNDAALLKQKAQGNSNLLAKIQDVEQQMKQVNTSSASDEAKAKELQTLQRKLTAYKKALA
The “soluble fraction (log2)” value of the first is lower: -0.688 for the first, 0.0101 for the second.

Compared with “HMAHTGGNTLTREKAVSVRSASDALLFEIHWNETPREDILSTREEKVDGKTYSIITIRTGKGREDHYYLLS”, “HMSMQIILLDKVVNLGGLGDVVKVKDGYARNYLIPQGKAKRANTANLAEFEARRVELERLAAEQLAQAQA” is higher in “soluble fraction (log2)” value: -0.29 for the first, 0.0814 for the second.

First: HMSLSISSLVFFRKNAGLTQADIATAMSITQSAVARLEKRLLSDSDVTLKTLERYAEAVGIRMHVDFEP
Second: HMGEMTDFETLRDMYLTGQIWNIDDLIEANGVEGRIVRRGTNYIAFNDRDGKVHKAWLHEVTINE
The “soluble fraction (log2)” value of the first is higher: -0.0207 for the first, -0.836 for the second.

“HMQVSDEGPIKAILQEVLDKSPTQLADYASGKVKLRQYFFGEAMKALKGKANPQVINKLLDEMLPPVAA” and “HMSYDAINGYEPSDLRGSLTLEQTASMLNLPLTDVYARLGLPANYPSGATLKDGAADMGMGLSDFKHQLF” are within 0.2 log units of each other in “soluble fraction (log2)” value: 0.079 for the first, -0.0605 for the second.

Going from “HMPPLVLRGVVMGADGARLAILAQGEAGAALGIGETWKEYTLRSVTDQSATLEHRSGTITLTR” to “HMRMLSEGAQRMLRGLAVLEEASADRLLELHQGDYPGFVRSLFALESAGLFQRNGSGTWIRR”, the “soluble fraction (log2)” value falls from -0.117 to -0.819.

First: HMPDRQKDIQNWQQIAETLLNMLDKYVAALETGKTGLAEAYKAIFAETLRRLDDRLDPEQFLP
Second: HMIDTTKILPGQEFKNMQELSVALTGQKMPAGKGYVLQQEKFKLYFSWKKITGTHKLIIDEIYEEPKT
The “soluble fraction (log2)” value of the first is higher: -1.54 for the first, -3.44 for the second.

Going from “HMSHGYVEMQAKDDQVLLAALKNHPWFEKVSIDEETGLTKAILTQPIEAEELNSMLFEKGIVLSHLVKRK” to “HMNEKMKEIGLRIKELRELSDISAQGMADHLKIPLETYQEYEDGKKDIPASILFEISQKMEVDMGLLLTGE”, the “soluble fraction (log2)” value falls from 0.234 to -0.0988.

“HMEGEVVESPLVGVAYLASGPDKPAFVQVGDSVSKGQTLLIIEAMKVMNEVPAPRDGIVTEILV” and “HMANKTVPNVSGKTVAEARAIIENQSLQVGEEKEEYSDSVAEGYIIRTNPTAGSQKKEQSKIDLVVSKG” are within 0.2 log units of each other in “soluble fraction (log2)” value: 0.0266 for the first, 0.203 for the second.

Compared with “HMSSIYVYPNPTANRIYIQADNIKKAELFDLMGRKVRSTNQPQIDISRLSRGNYILQVKTQNNTQSFKIIK”, “HMEMDPKELGRQVLAKRKEKGWSQEQLGKMAEISRNYVSQIERGEADSISIKIINRLAIALGVSPSDLGE” is higher in “soluble fraction (log2)” value: -0.476 for the first, 0.0486 for the second.

Going from “HMRSSAATMFGRIALKNKLVDEATLKKVMSELPAGADLGAVLVKQGLISEQHAEAIQKKITAHMKSAP” to “HMIDHLPPQRAAVLAFLQRELVAGRSPSLAEIALAFGFASRNAAQKHVQALVADGLLEQATGRSRGLRLPG”, the “soluble fraction (log2)” value falls from 0.273 to -1.67.

Going from “HMFPNSFSEREKEVVDLLLQAKSNKQIAFSLGITNRTVEYHLGNIFAKLGVSSRSEAILTITNYKNQ” to “HMPLLELPDDFYPAWKPKTIYVQGQRIMLDGVAFEAKWWTQGDNPASGQADPGSSPWRTLTQEEIAKLLE”, the “soluble fraction (log2)” value rises from -2.01 to -0.901.

Compared with “HMTKQRSIILDLLKANQDRHLTAEEMLELLNQNHTPVSKATLYRYLDMLVSQNAVRKFIIDDQPSAGYQYL”, “HMPEPAPALPAKTRVSIRRETGGIIWHEGAWTISPPIRAYDGRWYVAVTTARKGIEFVPVSSVIRS” is higher in “soluble fraction (log2)” value: -1.34 for the first, -1.07 for the second.

“HMKVSVPDIMDNSSLRQAEAKLRALGFRVTEPEYISGEKDWVYSVTYKGRTLNAGDKVPHEALLTLHVGNG” and “HMETYPINVETTGTNVLLRTGPSTSSNIIKTITDKGTVFLSIERGINSDWQKVVTPDGTIGYMSGKY” are within 0.2 log units of each other in “soluble fraction (log2)” value: -0.0697 for the first, 0.000612 for the second.

“HMDAVTPVLSRIRDARFKRMVLPGDEIEISVTLIDTIGKFFNLSGQIRNKDKISLTVNFALALV” and “HMSGLVPAIGTKGEEGYIRESDIPGSNVKNPEEALAYMEWLKTQPSELLIPLYDEQGNVIGQFAVS” are within 0.2 log units of each other in “soluble fraction (log2)” value: -0.0104 for the first, 0.07 for the second.

Going from “HMQVAPDLMQRLTSQGHVDEKLSDALVHARQITNFEGRRRQMQFIGKLMRKLSEESIEAVKDALNEQRM” to “HMTMQQGTISRLNHSRGFGFLTTPDGEDLFFHRTNVHETPFARLQVGDRVTYDVQVTPRGTRADKVQLNM”, the “soluble fraction (log2)” value rises from -0.264 to -0.0328.

First: HMDLDPNKPAIPIAYPRVLLNIMAEKGFSRTEVLAGSGLADSVFDKPDHRITPAQFLFILMNSFYLS
Second: HMADYYETLGVERTASEEDIKRAYRKMSRKYHPDIAGPEFEEKFKEVNTAYEVLSDPDKRRMYDAGVDPND
The “soluble fraction (log2)” value of the first is lower: -0.601 for the first, 0.0489 for the second.

“HMGNVGEAIEALVKGFQEGNQFQTLLGVTGSGKTFTMANVIAALNKPTLIISHNKTLAAQLYLSLIHIS” and “HMEWTDIPTHKVPNVVGKSVEEAKKKLSKFTIEYSGTGEKVVAQSPDAGEKLEEGGTVRLLL” are within 0.2 log units of each other in “soluble fraction (log2)” value: 0.112 for the first, 0.203 for the second.

“HMSTGGDLTQRERELLGLMARGLSNQEISKRLTIAMPTVKFHVTNILAKLHADNRTEAVLVALKNKLVAL” and “HMAITYETKVISGVNLRSAPSTSASVYQLIPKGENIHVVQKVNDYWLKVQTKDGKTGYISASSKYTNYIG” are within 0.2 log units of each other in “soluble fraction (log2)” value: -0.748 for the first, -0.773 for the second.

Compared with “HMKLFGTPGSPFARKVRIVLEEKRIPHEYIIERGSAPGSRVPQYNPLGKVPTLVLDDGRGLYDSPVIVEYL”, “HMKININEASRYELMTIGGLDAGRADMLMQYRQKREISSADELKGINGFASYDTAKLQKSFEISP” is higher in “soluble fraction (log2)” value: -0.492 for the first, -0.0475 for the second.

First: HMRQPRGQRVTVREASSLLPFLFAHLTDRSRSAVKSLLRHGQIWVNGRVTTHFDMPLRPGDTVLISHERG
Second: HMQETMTNDEVISLTKAGLSSSIIIGKIRSSATNFDLSTDSLIKLKQAGVSDETVAAMLEAKS
The “soluble fraction (log2)” value of the first is lower: -0.347 for the first, 0.0855 for the second.

First: HMKMTIEDLITQAKESNAAENYYEAFQLYSKAIDVLPNDPDLYSARGVVLFHLDRKEDSLIDMNKSVD
Second: HMKSSYSGNFKQNVVEYMHNNHLSATETANHFKLGGGSVVLRWERIYYEEGPQALYEERRGR
The “soluble fraction (log2)” value of the first is higher: -0.2 for the first, -1.7 for the second.

Going from “HMQLEPLITSVIPVNFAKAGEVATTIKGKEVGLVSDRGSITAESRTNVLIVKDIKKNVDDISAMVKRLD” to “HMIEFYTMQDMFYFKLTGDNTSRERREALGKILGIGYGNATQMVSRLNNYGISKEEFSKAIEEIEKQLEA”, the “soluble fraction (log2)” value falls from 0.123 to -2.8.

First: HMEGTVQQDKFDAYKAKFEDAISNDLNTSMAITIIYDLLKDDMNDKTKLALINDFDKVLSLNLTTA
Second: HMEYEETMSQIKHNLNLLPRQQRVIIEMAKFDELTPAEIAKQLGISVQTVRNQLSTGLKKLRQLL
The “soluble fraction (log2)” value of the first is lower: -0.255 for the first, -0.0252 for the second.

Compared with “HMSYLDTLPGRRVAAQGAITGDAGTLAVDGDTWSARVEPGAPDVAPGDEVTVLRIDGATLVVRPLP”, “HMNLGVIYSLKAEVRSEPNTFSTRLFEVHEGLKVSINQLENDWVEIELLDGKTGWISNDQIRLI” is lower in “soluble fraction (log2)” value: -0.0478 for the first, -2.12 for the second.

For “HMEDKIEESLEDNISELFAKTKDKYTLINDLYSKGYTVEELSRFSGLPSGEVRLVISLNSKN”, the “soluble fraction (log2)” value was 0.0392.
